The source of these data is the FLAb antibody collection (doi:10.7554/elife.23156).

B1: scFv; the commonest letter at each place (parent)
chain 1: EVKLDETGGGLVQPGRPMKLSCVASGFTFSDYWMNWVRQSPEKGLEWVAQIRNKPYNYETYYSDSVKGRFTISRDDSKSSVYLQMNNLRVEDMGIYYCTGSYYGMDYWGQGTSVTVS
chain 2: DVVMTQTPLSLPVSLGDQASISCRSSQSLVHSNGNTYLRWYLQKPGQSPKVLIYKVSNRFSGVPDRFSGSGSGTDFTLKISRVEAEDLGVYFCSQSTHVPWTFGGGTKLEIK

The data set “fluorescein” covers variants of B1. Description: Kd (Tite-Seq). The settings on record: with fluorescein; format: scFv 4-4-20, heavy + light.
Variants of B1 are the subject of data set [1]. In words: yeast surface expression (ratio to wild type); higher = more expressed. To be noted: format: scFv 4-4-20, heavy + light.

Some results are limits rather than exact numbers.

For orientation: Kd means a measure of binding affinity in units of concentration. Turning to chain 1 F29D N35F W36G, the Kd with fluorescein is ≥ 10 µM. Also, the yeast surface expression in data set [1] was 0.644. In the same order, the values of chain 1 F29E M34E are ≥ 10 µM and 0.455. chain 1 F29K S30A W36A: the Kd with fluorescein worked out at 0.0767 µM. In data set [1], the yeast surface expression was found to be 0.756. Turning to chain 1 F29L S30T V37W, the Kd in the data set with fluorescein was ≥ 10 µM. The yeast surface expression in data set [1] turned out to be 0.536. As for chain 1 F29E D31R, the Kd in the data set with fluorescein was ≥ 10 µM. The yeast surface expression in data set [1] was 0.624. The matching figures for chain 1 F29C S30C: ≥ 10 µM and 0.693. chain 1 F29A M34R: the equilibrium dissociation constant (Kd) with fluorescein is ≥ 10 µM. Besides, in data set [1], the yeast surface expression stood at 1.01.

chain 1 F29A M34A: the Kd in the data set with fluorescein was ≥ 10 µM. For the same variant, the yeast surface expression in data set [1] amounted to 0.738.

In the case of chain 1 F29A M34S, in the data set with fluorescein, the Kd was ≥ 10 µM. The yeast surface expression in data set [1] was 0.612. With chain 1 F29A M34V, in the data set with fluorescein, the Kd is ≥ 10 µM. In data set [1], the yeast surface expression came out at 0.827. Consider chain 1 F29A M34G, for which, in the data set with fluorescein, the dissociation constant (Kd) is ≥ 10 µM. Further, the yeast surface expression in data set [1] is 0.656.

For the variant chain 1 F29I W33A W36Y, the Kd in the data set with fluorescein was ≥ 10 µM. In addition, in data set [1], the yeast surface expression was 0.454.

As to chain 1 F29H N35V, the Kd with fluorescein stood at 0.00251 µM. Also, in data set [1], the yeast surface expression turned out to be 2.76. With chain 1 F29H V37R, the Kd with fluorescein was 0.00707 µM.

In the case of chain 1 F29R S30L, the Kd with fluorescein was ≥ 10 µM. Moreover, the yeast surface expression in data set [1] was determined as 0.654.

In the case of chain 1 F29P W33E, the Kd in the data set with fluorescein is ≥ 10 µM. For the same variant, the yeast surface expression in data set [1] is 0.722.

Regarding chain 1 F29P W33G, in the data set with fluorescein, the Kd is ≥ 10 µM. Also, in data set [1], the yeast surface expression came to 0.951. Regarding chain 1 F29I N35A, the Kd with fluorescein was ≥ 10 µM. Also, the yeast surface expression in data set [1] was determined as 0.817. For the variant chain 1 F29I N35P, the Kd in the data set with fluorescein is ≥ 10 µM. Further, in data set [1], the yeast surface expression was 2.62. In the same order, the values of chain 1 F29I N35R are ≥ 10 µM and 0.852. For the variant chain 1 F29I N35I, the Kd in the data set with fluorescein is ≥ 10 µM. Moreover, the yeast surface expression in data set [1] amounted to 0.383. In the same order, the values of chain 1 F29T W36D are ≥ 10 µM and 0.484.

For chain 1 F29M D31Y W33Q, the Kd with fluorescein is ≥ 10 µM. For the same variant, the yeast surface expression in data set [1] was 0.811.

On to chain 1 F29V V37G, for which the Kd with fluorescein is 5.96 µM. The yeast surface expression in data set [1] worked out at 0.65. The matching figures for chain 1 F29G N35I: ≥ 10 µM and 0.645. In the same order, the values of chain 1 F29Q W33I are ≥ 10 µM and 0.707. In the same order, the values of chain 1 F29R Y32Q are ≥ 10 µM and 0.633. For the variant chain 1 F29M W33V, the Kd with fluorescein is ≥ 10 µM. In addition, the yeast surface expression in data set [1] was 0.982. Take chain 1 F29M W33M: the dissociation constant Kd with fluorescein is ≥ 10 µM. In data set [1], the yeast surface expression is 0.873. In the same order, the values of chain 1 F29M W33C are ≥ 10 µM and 0.983.

Take chain 1 F29M W33P: in the data set with fluorescein, the Kd is ≥ 10 µM. Besides, in data set [1], the yeast surface expression came to 0.639.

Turning to chain 1 F29N D31C M34N, the Kd in the data set with fluorescein is ≥ 10 µM. Also, in data set [1], the yeast surface expression was 0.701. The matching figures for chain 1 F29R Y32P N35E: ≥ 10 µM and 0.819. In the same order, the values of chain 1 F29D S30A are ≥ 10 µM and 0.941. The matching figures for chain 1 F29D S30K: ≥ 10 µM and 0.968.

chain 1 F29Q S30D Y32A: the Kd with fluorescein is ≥ 10 µM. Further, the yeast surface expression in data set [1] turned out to be 0.934. In the same order, the values of chain 1 F29I W33M V37P are ≥ 10 µM and 0.444. On to chain 1 F29I W33H, for which the Kd with fluorescein is ≥ 10 µM. Moreover, the yeast surface expression in data set [1] came to 0.763. As to chain 1 F29G W33K, the Kd with fluorescein was ≥ 10 µM. Moreover, the yeast surface expression in data set [1] was 0.65.

With chain 1 F29G D31Y, in the data set with fluorescein, the Kd is ≥ 10 µM. Besides, in data set [1], the yeast surface expression came out at 0.708. For chain 1 F29G D31R, the Kd in the data set with fluorescein was ≥ 10 µM. Moreover, in data set [1], the yeast surface expression stood at 0.931. In the same order, the values of chain 1 F29G D31E are ≥ 10 µM and 0.955. In the same order, the values of chain 1 F29V M34E are ≥ 10 µM and 0.715.

Consider chain 1 F29T Y32S W33H, for which, in the data set with fluorescein, the Kd is ≥ 10 µM. Also, in data set [1], the yeast surface expression stood at 0.659. In the same order, the values of chain 1 F29I Y32K are 0.00226 µM and 1.07. Consider chain 1 F29I Y32E, for which, in the data set with fluorescein, the Kd is ≥ 10 µM. In addition, in data set [1], the yeast surface expression stood at 0.916. In the same order, the values of chain 1 F29I Y32G are ≥ 10 µM and 1.08. In the same order, the values of chain 1 F29I D31E Y32T are ≥ 10 µM and 0.84. In the same order, the values of chain 1 F29A W33I are ≥ 10 µM and 0.852.

With chain 1 F29A W33N, the Kd with fluorescein is ≥ 10 µM. Moreover, the yeast surface expression in data set [1] worked out at 0.741. With chain 1 F29L D31L, the Kd in the data set with fluorescein was ≥ 10 µM. The yeast surface expression in data set [1] stood at 0.633. As to chain 1 F29L D31S, the Kd in the data set with fluorescein was 0.972 µM. Also, the yeast surface expression in data set [1] stood at 0.743. As to chain 1 F29S W33C, the Kd in the data set with fluorescein is ≥ 10 µM. The yeast surface expression in data set [1] worked out at 0.865. The matching figures for chain 1 F29S W33H: ≥ 10 µM and 0.724. Turning to chain 1 F29L S30C N35A, the Kd with fluorescein was ≥ 10 µM. Besides, the yeast surface expression in data set [1] was determined as 0.89. In the same order, the values of chain 1 F29S V37C are 0.00638 µM and 0.758. With chain 1 F29A W36H, in the data set with fluorescein, the Kd is ≥ 10 µM. In addition, in data set [1], the yeast surface expression came to 0.912.

For the variant chain 1 F29A W36A, in the data set with fluorescein, the dissociation constant Kd was ≥ 10 µM. Besides, in data set [1], the yeast surface expression was 0.822.
